Columns and labels:
recombinant FcγRI = recombinant FcγRI (UniProt P12314); test: ELISA; conditions: highest mAb concentration, about 200 nM (est. from x axis); parent: est. 0.73; read off a plot
[1] = molecular target: Biotinylated MPER peptide (HIV-1); test: BLI; biotinylated MPER peptide (30 nM) loaded on streptavidin biosensors to 0.6 nm, Octet RED96; Fabs at 50 and 100 nM; 0.5% BSA in PBS with 0.05% Tween 20; association 5 min, dissociation 10 min; values of the two concentrations averaged

Sequence of UniProt P12314 (P12314 16-292): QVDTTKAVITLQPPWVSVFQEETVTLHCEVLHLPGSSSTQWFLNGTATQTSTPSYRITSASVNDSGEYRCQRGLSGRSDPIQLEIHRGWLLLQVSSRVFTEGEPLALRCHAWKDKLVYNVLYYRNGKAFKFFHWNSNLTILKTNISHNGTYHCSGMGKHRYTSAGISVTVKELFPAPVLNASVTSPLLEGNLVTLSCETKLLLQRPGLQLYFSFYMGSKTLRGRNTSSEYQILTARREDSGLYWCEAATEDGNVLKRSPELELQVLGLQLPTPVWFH

response (Absorbance at 450nm) (recombinant FcγRI)	Substance	Kd [1]	koff [1]
0.05	10E8v4 WT antibody (IgG) L234A; L235A; P329G		
	10E8 Fab	3.8 nM	0.0016 s⁻¹

From publication PMC9888200
